Experimental findings from patent US8540999B2, “Allergenic proteins and peptides from Japanese cedar pollen” (Merck Patent GmbH, priority 1991, dated 2013) are described below.

This assay deals with Cry j I reactive T cells. The experiment in a line: T cell proliferation assay, Cry j I primed T cell lines (Example 6). It is filed as cell-based, human. As for the experimental part: Viable cells were purified by LSM centrifugation and cultured in complete medium supplemented with 5 units recombinant human IL-2/ml and 5 units recombinant human IL-4/ml for up to three weeks until the cells no longer responded to lymphokines and were considered “rested”. The ability of the T cells to proliferate to selected peptides, recombinant Cry j I (rCry j I), purified native Cry j I, or recombinant Amb aI.1 (rAmb aI.1) or a positive control, phyto-hemaglutinin (PHA) was then assessed. For assay, 2×10^4 rested cells were restimulated in the presence of 2×10^4 autologous Epstein-Barr virus (EBV)-transformed B cells (prepared as described below) (gamma-irradiated with 25,000 RADS) with 2-50 μg/ml of selected peptides, Cry j I, purified native Cry j I or rAmb a I.1 or PHA, in a volume of 200 μl complete medium in duplicate or triplicate wells in 96-well round bottom plates for 2-4 days. […] Each well then received 1 μCi tritiated thymidine for 16-20 hours. The counts incorporated were collected onto glass fiber filter mats and processed for liquid scintillation counting. […] The titrations were used to optimize the dose of peptides in T cell assays. The maximum response in a titration of each peptide is expressed as the stimulation index (S.I.). The S.I. is the counts per minute (CPM) incorporated by cells in response to peptide, divided by the CPM incorporated by cells in medium only.
The above procedure was followed with a number of other patients. […] The bars represent the positivity index. Above each bar is the percent of positive responses with an S.I. of at least two to the peptide or protein in the group of patients tested. In parenthesis above each bar are the mean stimulation indices for each peptide or protein for the group of patients tested.
Autologous EBV-transformed cell lines were y-irradiated with 25,000 Rad and used as antigen presenting cells in secondary proliferation assays and secondary bulk stimulations. These EBV-transformed cell lines were made by incubating 5×10^6 PBL with 1 ml of B-59/8 Marmoset cell line (ATCC CRL1612, American Type Culture Collection, Rockville, Md.) conditioned medium in the presence of 1 μg/ml phorbol 12-myristate 13-acetate (PMA) at 37° C. for 60 minutes in 12×75 mm polypropylene round-bottom Falcon snap cap tubes (Becton Dickinson Labware, Lincoln Park, N.J.). These cells were then diluted to 1.25×10^6 cells/ml in RPMI-1640 as described above except supplemented with 10% heat-inactivated fetal bovine serum and cultured in 200 μl aliquots in flat bottom culture plates until visible colonies were detected. They were then transferred to larger wells until the cell lines were established.

B1: purified native Cry j I: major allergen of Japanese cedar pollen, biochemically purified in the native form (protein)
chain: DNPIDSCWRGDSNWAQNRMKLADCAVGFGSSTMGGKGGDLYTVTNSDDDPVNPAPGTLRYGATRDRPLWIIFSGNMNIKLKMPMYIAGYKTFDGRGAQVYIGNGGPCVFIKRVSNVIIHGLYLYGCSTSVLGNVLINESFGVEPVHPQDGDALTLRTATNIWIDHNSFSNSSDGLVDVTLTSTGVTISNNLFFNHHKVMLLGHDDAYSDDKSMKVTVAFNQFGPNCGQRMPRARYGLVHVANNNYDPWTIYAIGGSSNPTILSEGNSFTAPNESYKKQVTIRIGCKTSSSCSNWVWQSTQDVFYNGAYFVSSGKYEGGNIYTKKEAFNVENGNATPQLTKNAGVLTCSLSKRC
Take B1: the “T cell line response” value (panel of twenty-five patients, FIG. 14) is reported as “All twenty-five T cell lines responded”. Where the note is “patient #999, FIG. 12”, the “T cell proliferative response” value is reported as “responds well”.
